B1: V(D)J recombination-activating protein 2, residues 415 to 491; numbered along this chain, P55895 (parent)
chain: YWITCCPTCDVDINTWVPFYSTELNKPAMIYCSHGDGHWVHAQCMDLAERTLIHLSAGSNKYYCNEHVEIARALHTP

± gives the uncertainty stated by the source.

Drawing on the Human Domainome abundance scans (Beltran et al. 2025), this text covers abundance fitness for 36 variants.

In the data set the parent is B1. The data set can be described thus: abundance fitness (aPCA) (normalised: wild type 0, dead -1); higher = more abundant; growth selection in yeast, the domain comes from the species named. The note with it: Homo sapiens.
For the variant YWITCCPTCDVDINTWVPFYSTELNKPAMIYCSHGDGHWVHAQCMDLAERTLIHLSAGSNKYYCNEHVEIAIALHTP, the abundance fitness is -0.121 ± 0.19.

Regarding YWITCCPTCDVDINTWVPFYSTELNKPAMIYCSHGDGHWVHAQCMDLAERTLIHLSAGSNKYYCNEHVEIANALHTP, the abundance fitness came to 0.059 ± 0.21.

As to YWITCCPTCDVDINTWVPFYSTELNKPAMIYCSHGDGHWVHAQCMDLAERTLIHLSAGSNKYYCNEHVEIAAALHTP, the abundance fitness turned out to be 0.138 ± 0.11.

Turning to YWITCCPTCDVDINTWVPFYSTELNKPAMIYCSHGDGHWVHAQCMDLAERTLIHLSAGSNKYYCNEHVEIASALHTP, the abundance fitness was found to be 0.073 ± 0.071.

Consider YWITCCPTCDVDINTWVPFYSTELNKPAMIYCSHGDGHWVHAQCMDLAERTLIHLSAGSNKYYCNEHVEIAQALHTP, for which the abundance fitness is -0.085 ± 0.12.

YWITCCPTCDVDINTWVPFYSTELNKPAMIYCSHGDGHWVHAQCMDLAERTLIHLSAGSNKYYCNEHVEIAPALHTP: the abundance fitness is 0.01 ± 0.1.

With YWITCCPTCDVDINTWVPFYSTELNKPAMIYCSHGDGHWVHAQCMDLAERTLIHLSAGSNKYYCNEHVEIAEALHTP, the abundance fitness was -0.042 ± 0.12.

For YWITCCPTCDVDINTWVPFYSTELNKPAMIYCSHGDGHWVHAQCMDLAERTLIHLSAGSNKYYCNEHVEIAWALHTP, the abundance fitness is -0.168 ± 0.075.

With YWITCCPTCDVDINTWVPFYSTELNKPAMIYCSHGDGHWVHAQCMDLAERTLIHLSAGSNKYYCNEHVEIAYALHTP, the abundance fitness was -0.332 ± 0.16.

As to YWITCCPTCDVDINTWVPFYSTELNKPAMIYCSHGDGHWVHAQCMDLAERTLIHLSAGSNKYYCNEHVEIACALHTP, the abundance fitness is -0.143 ± 0.16.

On to YWITCCPTCDVDINTWVPFYSTELNKPAMIYCSHGDGHWVHAQCMDLAERTLIHLSAGSNKYYCNEHVEIAKALHTP, for which the abundance fitness stood at 0.022 ± 0.18.

YWITCCPTCDVDINTWVPFYSTELNKPAMIYCSHGDGHWVHAQCMDLAERTLIHLSAGSNKYYCNEHVEIAFALHTP: the abundance fitness is -0.131 ± 0.18.

With YWITCCPTCDVDINTWVPFYSTELNKPAMIYCSHGDGHWVHAQCMDLAERTLIHLSAGSNKYYCNEHVEIAVALHTP, the abundance fitness is -0.016 ± 0.12.

Consider YWITCCPTCDVDINTWVPFYSTELNKPAMIYCSHGDGHWVHAQCMDLAERTLIHLSAGSNKYYCNEHVEIAGALHTP, for which the abundance fitness worked out at 0.022 ± 0.11.

As to YWITCCPTCDVDINTWVPFYSTELNKPAMIYCSHGDGHWVHAQCMDLAERTLIHLSAGSNKYYCNEHVEIADALHTP, the abundance fitness was found to be 0.032 ± 0.21.

Consider YWITCCPTCDVDINTWVPFYSTELNKPAMIYCSHGDGHWVHAQCMDLAERTLIHLSAGSNKYYCNEHVEIATALHTP, for which the abundance fitness was determined as 0.056 ± 0.08.

Turning to YWITCCPTCDVDINTWVPFYSTELNKPAMIYCSHGDGHWVHAQCMDLAERTLIHLSAGSNKYYCNEHVEIARAGHTP, the abundance fitness amounted to 0.092 ± 0.16.

For YWITCCPTCDVDINTWVPFYSTELNKPAMIYCSHGDGHWVHAQCMDLAERTLIHLSAGSNKYYCNEHVEIYRALHTP, the abundance fitness is 0.124 ± 0.15.

For the variant YWITCCPTCDVDINTWVPFYSTELNKPAMIYCSHGDGHWVHAQCMDLAERTLIHLSAGSNKYYCNEHVEIWRALHTP, the abundance fitness is -0.207 ± 0.18.

Turning to YWITCCPTCDVDINTWVPFYSTELNKPAMIYCSHGDGHWVHAQCMDLAERTLIHLSAGSNKYYCNEHVEIVRALHTP, the abundance fitness is -0.003 ± 0.051.

YWITCCPTCDVDINTWVPFYSTELNKPAMIYCSHGDGHWVHAQCMDLAERTLIHLSAGSNKYYCNEHVEISRALHTP: the abundance fitness is -0.04 ± 0.06.

For the variant YWITCCPTCDVDINTWVPFYSTELNKPAMIYCSHGDGHWVHAQCMDLAERTLIHLSAGSNKYYCNEHVEITRALHTP, the abundance fitness was 0.09 ± 0.1.

Regarding YWITCCPTCDVDINTWVPFYSTELNKPAMIYCSHGDGHWVHAQCMDLAERTLIHLSAGSNKYYCNEHVEIARMLHTP, the abundance fitness was -0.121 ± 0.1.

Take YWITCCPTCDVDINTWVPFYSTELNKPAMIYCSHGDGHWVHAQCMDLAERTLIHLSAGSNKYYCNEHVEIARTLHTP: the abundance fitness was found to be 0.033 ± 0.088.

With YWITCCPTCDVDINTWVPFYSTELNKPAMIYCSHGDGHWVHAQCMDLAERTLIHLSAGSNKYYCNEHVEIARSLHTP, the abundance fitness was -0.089 ± 0.14.

As for YWITCCPTCDVDINTWVPFYSTELNKPAMIYCSHGDGHWVHAQCMDLAERTLIHLSAGSNKYYCNEHVEIARRLHTP, the abundance fitness is 0.001 ± 0.057.

With YWITCCPTCDVDINTWVPFYSTELNKPAMIYCSHGDGHWVHAQCMDLAERTLIHLSAGSNKYYCNEHVEIARLLHTP, the abundance fitness amounted to 0.053 ± 0.084.

Turning to YWITCCPTCDVDINTWVPFYSTELNKPAMIYCSHGDGHWVHAQCMDLAERTLIHLSAGSNKYYCNEHVEIARELHTP, the abundance fitness was -0.009 ± 0.1.

As for YWITCCPTCDVDINTWVPFYSTELNKPAMIYCSHGDGHWVHAQCMDLAERTLIHLSAGSNKYYCNEHVEIARDLHTP, the abundance fitness was 0.019 ± 0.12.

For YWITCCPTCDVDINTWVPFYSTELNKPAMIYCSHGDGHWVHAQCMDLAERTLIHLSAGSNKYYCNEHVEIARGLHTP, the abundance fitness came out at 0.096 ± 0.071.

Consider YWITCCPTCDVDINTWVPFYSTELNKPAMIYCSHGDGHWVHAQCMDLAERTLIHLSAGSNKYYCNEHVEIARILHTP, for which the abundance fitness is -0.042 ± 0.098.

As to YWITCCPTCDVDINTWVPFYSTELNKPAMIYCSHGDGHWVHAQCMDLAERTLIHLSAGSNKYYCNEHVEIARPLHTP, the abundance fitness was 0.027 ± 0.13.

YWITCCPTCDVDINTWVPFYSTELNKPAMIYCSHGDGHWVHAQCMDLAERTLIHLSAGSNKYYCNEHVEIARQLHTP: the abundance fitness stood at 0.009 ± 0.14.

As for YWITCCPTCDVDINTWVPFYSTELNKPAMIYCSHGDGHWVHAQCMDLAERTLIHLSAGSNKYYCNEHVEIARWLHTP, the abundance fitness is -0.104 ± 0.086.

On to YWITCCPTCDVDINTWVPFYSTELNKPAMIYCSHGDGHWVHAQCMDLAERTLIHLSAGSNKYYCNEHVEIARVLHTP, for which the abundance fitness is -0.257 ± 0.071.

YWITCCPTCDVDINTWVPFYSTELNKPAMIYCSHGDGHWVHAQCMDLAERTLIHLSAGSNKYYCNEHVEIARYLHTP: the abundance fitness is -0.109 ± 0.17.
